In publication PMC9482650, “Quantitative fragmentomics allow affinity mapping of interactomes” (Nature Communications, 2022):

T1: APBA1_1, Q02410
T1 sequence (Q02410 651-752, limits assumed, looked up): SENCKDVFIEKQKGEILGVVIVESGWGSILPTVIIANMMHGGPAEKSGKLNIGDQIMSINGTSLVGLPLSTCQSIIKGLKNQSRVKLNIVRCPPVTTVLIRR

T2: APBA1_2, Q02410
T2 sequence (Q02410 742-832, limits assumed, looked up): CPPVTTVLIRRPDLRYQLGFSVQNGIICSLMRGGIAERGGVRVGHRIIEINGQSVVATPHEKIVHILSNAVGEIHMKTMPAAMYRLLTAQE

T3: ARHGAP21, Q5T5U3
T3 sequence (Q5T5U3 45-169, limits assumed, looked up): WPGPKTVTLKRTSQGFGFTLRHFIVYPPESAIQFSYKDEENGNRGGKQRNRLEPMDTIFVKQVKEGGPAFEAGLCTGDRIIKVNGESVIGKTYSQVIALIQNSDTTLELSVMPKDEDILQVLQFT

T4: ARHGEF11, O15085
T4 sequence (O15085 42-136, limits assumed, looked up): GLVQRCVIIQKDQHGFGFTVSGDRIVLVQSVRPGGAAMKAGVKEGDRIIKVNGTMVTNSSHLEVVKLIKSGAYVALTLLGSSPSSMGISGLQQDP

T5: LIN7C, Q9NUP9
T5 sequence (Q9NUP9 88-185, limits assumed, looked up): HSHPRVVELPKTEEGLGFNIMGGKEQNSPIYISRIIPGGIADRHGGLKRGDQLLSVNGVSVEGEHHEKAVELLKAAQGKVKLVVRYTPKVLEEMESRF

T6: LNX2_3, Q8N448
T6 sequence (Q8N448 463-564, limits assumed, looked up): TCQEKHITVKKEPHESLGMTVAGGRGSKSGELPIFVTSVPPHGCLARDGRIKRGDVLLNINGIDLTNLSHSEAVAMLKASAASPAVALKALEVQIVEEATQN

T7: LRRC7, Q96NW7
T7 sequence (Q96NW7 1440-1537, limits assumed, looked up): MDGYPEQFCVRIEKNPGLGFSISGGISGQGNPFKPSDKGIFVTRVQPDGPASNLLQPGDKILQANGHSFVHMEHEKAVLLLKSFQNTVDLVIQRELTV

T8: RAPGEF6, Q8TEU7
T8 sequence (Q8TEU7 525-625, limits assumed, looked up): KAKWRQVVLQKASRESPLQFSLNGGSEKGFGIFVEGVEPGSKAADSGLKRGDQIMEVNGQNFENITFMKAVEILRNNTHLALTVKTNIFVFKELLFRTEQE

T9: SHANK1, Q9Y566
T9 sequence (Q9Y566 658-767, limits assumed, looked up): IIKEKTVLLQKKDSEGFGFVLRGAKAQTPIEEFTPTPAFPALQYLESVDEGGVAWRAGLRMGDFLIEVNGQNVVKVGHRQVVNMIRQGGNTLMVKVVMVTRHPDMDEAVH

T10: TJP3_3, O95049
T10 sequence (O95049 375-456, limits assumed, looked up): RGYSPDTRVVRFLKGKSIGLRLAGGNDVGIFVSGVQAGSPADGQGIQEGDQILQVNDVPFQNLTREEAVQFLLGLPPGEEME


molecular target: T1, APBA1_1, Q02410; assay: holdup assay; parameters: key: below the threshold = too weak to quantify, mostly under pKd 3.1 to 4; conditions: plain residues with an end cap or a label only (N-terminal biotin on a linker: ado-ado)

Q: For NSTHNLKDYV [CLDN20, P56880], which pKd is on record?
A: below the threshold

molecular target: T2, APBA1_2, Q02410; assay: holdup assay; parameters: key: below the threshold = too weak to quantify, mostly under pKd 3.1 to 4; conditions: plain residues with an end cap or a label only (N-terminal biotin on a linker: ado-ado)

Q: With NSTHNLKDYV [CLDN20, P56880] as the binder, how does the pKd read?
A: 3.69

molecular target: T3, ARHGAP21, Q5T5U3; assay: holdup assay; parameters: key: below the threshold = too weak to quantify, mostly under pKd 3.1 to 4; conditions: plain residues with an end cap or a label only (N-terminal biotin on a linker: ado-ado)

Q: NSTHNLKDYV [CLDN20, P56880] was tested. Which pKd did it give?
A: 3.89

molecular target: T4, ARHGEF11, O15085; assay: holdup assay; parameters: key: below the threshold = too weak to quantify, mostly under pKd 3.1 to 4; conditions: plain residues with an end cap or a label only (N-terminal biotin on a linker: ado-ado)

Q: NSTHNLKDYV [CLDN20, P56880] was tested. Which pKd did it give?
A: below the threshold

molecular target: DLG2_3, Q15700; assay: holdup assay; parameters: key: below the threshold = too weak to quantify, mostly under pKd 3.1 to 4; conditions: plain residues with an end cap or a label only (N-terminal biotin on a linker: ado-ado)

Q: For NSTHNLKDYV [CLDN20, P56880], which pKd is on record?
A: below the threshold

molecular target: DLG4_1, P78352; assay: holdup assay; parameters: key: below the threshold = too weak to quantify, mostly under pKd 3.1 to 4; conditions: plain residues with an end cap or a label only (N-terminal biotin on a linker: ado-ado)
Sequence (P78352 62-152): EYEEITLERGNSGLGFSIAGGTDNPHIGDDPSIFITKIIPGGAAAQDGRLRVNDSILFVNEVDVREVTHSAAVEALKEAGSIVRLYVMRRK

Q: NSTHNLKDYV [CLDN20, P56880] was tested. Which pKd did it give?
A: below the threshold

molecular target: FRMPD2_1, Q68DX3; assay: holdup assay; parameters: key: below the threshold = too weak to quantify, mostly under pKd 3.1 to 4; conditions: plain residues with an end cap or a label only (N-terminal biotin on a linker: ado-ado)
Sequence (Q68DX3 770-861): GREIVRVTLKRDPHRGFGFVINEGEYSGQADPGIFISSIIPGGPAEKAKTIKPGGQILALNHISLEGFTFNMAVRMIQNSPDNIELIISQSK

Q: How did the pKd turn out when NSTHNLKDYV [CLDN20, P56880] was run?
A: below the threshold

molecular target: FRMPD2_2, Q68DX3; assay: holdup assay; parameters: key: below the threshold = too weak to quantify, mostly under pKd 3.1 to 4; conditions: plain residues with an end cap or a label only (N-terminal biotin on a linker: ado-ado)
Sequence (Q68DX3 944-1038): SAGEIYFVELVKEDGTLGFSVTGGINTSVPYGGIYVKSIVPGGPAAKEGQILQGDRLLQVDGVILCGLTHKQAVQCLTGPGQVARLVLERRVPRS

Q: For NSTHNLKDYV [CLDN20, P56880], which pKd is on record?
A: below the threshold

molecular target: GRID2IP_1, A4D2P6; assay: holdup assay; parameters: key: below the threshold = too weak to quantify, mostly under pKd 3.1 to 4; conditions: plain residues with an end cap or a label only (N-terminal biotin on a linker: ado-ado)
Sequence (A4D2P6 1-87): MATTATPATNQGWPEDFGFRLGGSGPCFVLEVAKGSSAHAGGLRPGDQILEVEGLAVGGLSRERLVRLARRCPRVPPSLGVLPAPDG

Q: For NSTHNLKDYV [CLDN20, P56880], which pKd is on record?
A: below the threshold

molecular target: Inadl_2, Q8NI35; assay: holdup assay; parameters: key: below the threshold = too weak to quantify, mostly under pKd 3.1 to 4; conditions: plain residues with an end cap or a label only (N-terminal biotin on a linker: ado-ado)
Sequence (Q8NI35 238-335): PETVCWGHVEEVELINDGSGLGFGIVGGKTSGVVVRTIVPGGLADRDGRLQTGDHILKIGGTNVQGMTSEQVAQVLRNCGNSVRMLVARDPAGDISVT

Q: How did the pKd turn out when NSTHNLKDYV [CLDN20, P56880] was run?
A: below the threshold

molecular target: Inadl_4, Q8NI35; assay: holdup assay; parameters: key: below the threshold = too weak to quantify, mostly under pKd 3.1 to 4; conditions: plain residues with an end cap or a label only (N-terminal biotin on a linker: ado-ado)
Sequence (Q8NI35 547-651): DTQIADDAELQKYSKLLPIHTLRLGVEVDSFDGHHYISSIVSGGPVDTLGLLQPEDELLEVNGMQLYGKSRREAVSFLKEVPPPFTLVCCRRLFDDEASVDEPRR

Q: Which pKd does the source give for NSTHNLKDYV [CLDN20, P56880] here?
A: below the threshold

molecular target: Inadl_8, Q8NI35; assay: holdup assay; parameters: key: below the threshold = too weak to quantify, mostly under pKd 3.1 to 4; conditions: plain residues with an end cap or a label only (N-terminal biotin on a linker: ado-ado)
Sequence (Q8NI35 1425-1530): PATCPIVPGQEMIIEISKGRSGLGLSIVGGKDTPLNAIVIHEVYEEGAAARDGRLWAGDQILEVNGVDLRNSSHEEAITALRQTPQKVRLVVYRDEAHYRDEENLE

Q: For NSTHNLKDYV [CLDN20, P56880], which pKd is on record?
A: 3.82

molecular target: LDB3, O75112; assay: holdup assay; parameters: key: below the threshold = too weak to quantify, mostly under pKd 3.1 to 4; conditions: plain residues with an end cap or a label only (N-terminal biotin on a linker: ado-ado)
Sequence (O75112 1-94): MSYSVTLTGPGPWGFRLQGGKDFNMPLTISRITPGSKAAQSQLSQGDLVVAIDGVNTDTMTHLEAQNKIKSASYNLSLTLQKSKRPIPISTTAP

Q: How did the pKd turn out when NSTHNLKDYV [CLDN20, P56880] was run?
A: below the threshold

molecular target: T5, LIN7C, Q9NUP9; assay: holdup assay; parameters: key: below the threshold = too weak to quantify, mostly under pKd 3.1 to 4; conditions: plain residues with an end cap or a label only (N-terminal biotin on a linker: ado-ado)

Q: How did the pKd turn out when NSTHNLKDYV [CLDN20, P56880] was run?
A: below the threshold

molecular target: T6, LNX2_3, Q8N448; assay: holdup assay; parameters: key: below the threshold = too weak to quantify, mostly under pKd 3.1 to 4; conditions: plain residues with an end cap or a label only (N-terminal biotin on a linker: ado-ado)

Q: How did the pKd turn out when NSTHNLKDYV [CLDN20, P56880] was run?
A: below the threshold

molecular target: T7, LRRC7, Q96NW7; assay: holdup assay; parameters: key: below the threshold = too weak to quantify, mostly under pKd 3.1 to 4; conditions: plain residues with an end cap or a label only (N-terminal biotin on a linker: ado-ado)

Q: Which pKd does the source give for NSTHNLKDYV [CLDN20, P56880] here?
A: below the threshold

molecular target: MAGI2_3, Q86UL8; assay: holdup assay; parameters: key: below the threshold = too weak to quantify, mostly under pKd 3.1 to 4; conditions: plain residues with an end cap or a label only (N-terminal biotin on a linker: ado-ado)
Sequence (Q86UL8 600-682): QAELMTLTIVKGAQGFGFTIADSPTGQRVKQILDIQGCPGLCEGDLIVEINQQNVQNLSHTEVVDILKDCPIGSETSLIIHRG

Q: How did the pKd turn out when NSTHNLKDYV [CLDN20, P56880] was run?
A: below the threshold

molecular target: MAGI2_4, Q86UL8; assay: holdup assay; parameters: key: below the threshold = too weak to quantify, mostly under pKd 3.1 to 4; conditions: plain residues with an end cap or a label only (N-terminal biotin on a linker: ado-ado)
Sequence (Q86UL8 772-865): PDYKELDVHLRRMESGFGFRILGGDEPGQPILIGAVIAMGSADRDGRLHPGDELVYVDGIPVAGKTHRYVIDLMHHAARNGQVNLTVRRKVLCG

Q: NSTHNLKDYV [CLDN20, P56880] was tested. Which pKd did it give?
A: below the threshold

molecular target: MAGI3_2, Q5TCQ9; assay: holdup assay; parameters: key: below the threshold = too weak to quantify, mostly under pKd 3.1 to 4; conditions: plain residues with an end cap or a label only (N-terminal biotin on a linker: ado-ado)
Sequence (Q5TCQ9 398-503): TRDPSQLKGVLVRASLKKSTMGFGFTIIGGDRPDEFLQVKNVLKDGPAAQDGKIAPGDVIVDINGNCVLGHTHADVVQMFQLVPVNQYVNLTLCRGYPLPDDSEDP

Q: How did the pKd turn out when NSTHNLKDYV [CLDN20, P56880] was run?
A: below the threshold

molecular target: NHERF4_1, Q86UT5-2; assay: holdup assay; parameters: key: below the threshold = too weak to quantify, mostly under pKd 3.1 to 4; conditions: plain residues with an end cap or a label only (N-terminal biotin on a linker: ado-ado)
Sequence (Q86UT5 other isoform, or with tags, fused parts or gaps): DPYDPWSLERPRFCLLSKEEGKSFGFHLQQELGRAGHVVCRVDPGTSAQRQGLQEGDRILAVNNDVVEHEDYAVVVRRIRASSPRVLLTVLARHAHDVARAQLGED

Q: Which pKd does the source give for NSTHNLKDYV [CLDN20, P56880] here?
A: 3.69

molecular target: NHERF4_2, Q86UT5; assay: holdup assay; parameters: key: below the threshold = too weak to quantify, mostly under pKd 3.1 to 4; conditions: plain residues with an end cap or a label only (N-terminal biotin on a linker: ado-ado)
Sequence (Q86UT5 220-308): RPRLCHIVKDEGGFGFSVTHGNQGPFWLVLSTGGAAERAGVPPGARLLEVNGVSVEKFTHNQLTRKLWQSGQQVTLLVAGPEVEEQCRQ

Q: NSTHNLKDYV [CLDN20, P56880] was tested. Which pKd did it give?
A: below the threshold

molecular target: PARD3_3, Q8TEW0; assay: holdup assay; parameters: key: below the threshold = too weak to quantify, mostly under pKd 3.1 to 4; conditions: plain residues with an end cap or a label only (N-terminal biotin on a linker: ado-ado)
Sequence (Q8TEW0 582-685): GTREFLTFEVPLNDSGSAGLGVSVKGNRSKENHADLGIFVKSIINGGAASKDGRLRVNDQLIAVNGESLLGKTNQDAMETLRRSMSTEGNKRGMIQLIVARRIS

Q: How did the pKd turn out when NSTHNLKDYV [CLDN20, P56880] was run?
A: below the threshold

molecular target: PDLIM1, O00151; assay: holdup assay; parameters: key: below the threshold = too weak to quantify, mostly under pKd 3.1 to 4; conditions: plain residues with an end cap or a label only (N-terminal biotin on a linker: ado-ado)
Sequence (O00151 1-87): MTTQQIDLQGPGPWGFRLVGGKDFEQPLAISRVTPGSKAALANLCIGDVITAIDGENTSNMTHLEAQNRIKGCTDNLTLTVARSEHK

Q: With NSTHNLKDYV [CLDN20, P56880] as the binder, how does the pKd read?
A: below the threshold

molecular target: PTPN3, P26045; assay: holdup assay; parameters: key: below the threshold = too weak to quantify, mostly under pKd 3.1 to 4; conditions: plain residues with an end cap or a label only (N-terminal biotin on a linker: ado-ado)
Sequence (P26045 505-587): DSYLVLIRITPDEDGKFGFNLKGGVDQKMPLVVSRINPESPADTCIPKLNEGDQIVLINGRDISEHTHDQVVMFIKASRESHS

Q: For NSTHNLKDYV [CLDN20, P56880], which pKd is on record?
A: below the threshold

molecular target: T8, RAPGEF6, Q8TEU7; assay: holdup assay; parameters: key: below the threshold = too weak to quantify, mostly under pKd 3.1 to 4; conditions: plain residues with an end cap or a label only (N-terminal biotin on a linker: ado-ado)

Q: For NSTHNLKDYV [CLDN20, P56880], which pKd is on record?
A: below the threshold

molecular target: SCRIB_2, Q14160; assay: holdup assay; parameters: key: below the threshold = too weak to quantify, mostly under pKd 3.1 to 4; conditions: plain residues with an end cap or a label only (N-terminal biotin on a linker: ado-ado)
Sequence (Q14160 857-960): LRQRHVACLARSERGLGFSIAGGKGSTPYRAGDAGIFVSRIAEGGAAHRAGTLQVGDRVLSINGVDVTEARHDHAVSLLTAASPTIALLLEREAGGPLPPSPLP

Q: NSTHNLKDYV [CLDN20, P56880] was tested. Which pKd did it give?
A: below the threshold

molecular target: T9, SHANK1, Q9Y566; assay: holdup assay; parameters: key: below the threshold = too weak to quantify, mostly under pKd 3.1 to 4; conditions: plain residues with an end cap or a label only (N-terminal biotin on a linker: ado-ado)

Q: How did the pKd turn out when NSTHNLKDYV [CLDN20, P56880] was run?
A: below the threshold

molecular target: T10, TJP3_3, O95049; assay: holdup assay; parameters: key: below the threshold = too weak to quantify, mostly under pKd 3.1 to 4; conditions: plain residues with an end cap or a label only (N-terminal biotin on a linker: ado-ado)

Q: NSTHNLKDYV [CLDN20, P56880] was tested. Which pKd did it give?
A: below the threshold
